In PMC3812847 one finds Kd, dH and stoichiometry N data, which are given here for one molecule.

The assay addresses T1, C-RapL (purified domain) (human).
T1 sequence (Q8WWW0 whole entry, looked up): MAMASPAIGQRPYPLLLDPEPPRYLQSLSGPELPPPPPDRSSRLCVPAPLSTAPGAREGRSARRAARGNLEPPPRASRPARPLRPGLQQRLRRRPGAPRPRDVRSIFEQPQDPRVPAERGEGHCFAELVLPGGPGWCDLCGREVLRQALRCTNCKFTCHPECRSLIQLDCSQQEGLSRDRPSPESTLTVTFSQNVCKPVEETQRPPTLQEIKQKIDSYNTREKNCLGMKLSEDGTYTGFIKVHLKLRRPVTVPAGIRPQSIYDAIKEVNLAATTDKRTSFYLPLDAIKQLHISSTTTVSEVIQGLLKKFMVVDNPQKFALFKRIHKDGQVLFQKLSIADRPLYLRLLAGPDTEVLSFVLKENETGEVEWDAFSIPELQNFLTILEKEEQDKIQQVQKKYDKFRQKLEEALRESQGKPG
Description: ITC. A general note: In ITC the heat of successive injections is recorded.

B1: N-SKAP1 (purified domain) (domain or fragment)
chain: MQAAALPEEIRWLLEDAEEFLAEGLRNENLSAVARDHRDHILRGFQQIKARYYWDFQPQGGDIGQDSSDDNHSGTLGLSLTSDAPFLSDYQDEGMEDIVKGAQE
For orientation: Kd means the concentration at which binding is half-saturated. Read a low Kd as higher affinity. The term stoichiometry N denotes the number of molecules, sites or subunits per partner or assembly. As for B1, the Kd came to 600 nM, the dH is -2.3 kcal/mol and the stoichiometry N worked out at 0.85.
